Data published in US20260234121A1, “DERIVATIVES, IMMUNOGENS, AND ANTIBODIES AND USE OF THE SAME IN DETECTION OF ECSTASY-CLASS COMPOUNDS” (Siemens Healthcare Diagnostics Inc., priority 2023, published 2026).
Positions count from the first letter of the chain named.

B1: 178K 3C8 mAb: mouse monoclonal antibody raised against E1-KLH (56); IgG1, κ; heavy chain SEQ ID NO 88, light chain SEQ ID NO 112 (antibody)
heavy: MNFGLSLIFLVLILKGVQCEVQLVESGGDLVKPGESLKLACAASGFTFSRDVMSWVRQTPDKRLEWVATISSNGIYIYYTDSVKGRFTISRDNAKNTLYLQLSSLRSEDTAVYYCSRGNNLDSWGQGTTLTVSSAKTTPPSVYPLAPGSAAQTNSMVTLGCLVKGYFPEPVTVTWNSGSLSSGVHTFPAVLQSDLYTLSSSVTVPSSTWPSETVTCNVAHPASSTKVDKKIVPRDCGCKPCICTVPEVSSVFIFPPKPKDVLTITLTPKVTCVVVDISKDDPEVQFSWFVDDVEVHTAQTQPREEQFNSTFRSVSELPIMHQDWLNGKEFKCRVNSAAFPAPIEKTISKTKGRPKAPQVYTIPPPKEQMAKDKVSLTCMITDFFPEDITVEWQWNGQPAENYKNTQPIMDTDGSYFIYSKLNVQKSNWEAGNTFTCSVLHEGLHNHHTEKSLSHSPGK
light: MRFSAQLLGLLVLWIPGSTADIVMTQAAFSNPVTLGTSASISCRSSKSLLHRNGITYLYWYLQKPGQSPQLLIYQMSNLASGVSDRFSSSGSGTDFTLRISRVEAEDVGVYFCGQDLELPYSFGGGTKLEIKRADAAPTVSIFPPSSEQLTSGGASVVCFLNNFYPKDINVKWKIDGSERQNGVLNSWTDQDSKDSTYSMSSTLTLTKDEYERHNSYTCEATHKTSTSPIVKSFNRNEC
B2: 178F 4C12 mAb: mouse monoclonal antibody raised against E1-KLH (56); IgG1, κ; heavy chain SEQ ID NO 80, light chain SEQ ID NO 104 (antibody)
heavy: MNFGLSLIFLALILKGVQCEVQLVESGGDLVKPGGSLKLSCAASGFTFSRFVMSWVRQTPDKRLEWVATISSGGIHTYYLDSVKGRVTIFRDNAKNTLYLQMSSLESEDTAMYYCAAGNALDYWGQGTSVTVSSAKTTAPSVYPLAPVCGGTTGSSVTLGCLVKGYFPEPVTLTWNSGSLSSGVHTFPALLQSGLYTLSSSVTVTSNTWPSQTITCNVAHPASSTKVDKKIEPRVPITQNPCPPLKECPPCAAPDLLGGPSVFIFPPKIKDVLMISLSPMVTCVVVDVSEDDPDVQISWFVNNVEVHTAQTQTHREDYNSTLRVVSALPIQHQDWMSGKEFKCKVNNRALPSPIEKTISKPRGPVRAPQVYVLPPPAEEMTKKEFSLTCMITGFLPAEIAVDWTSNGRTEQNYKNTATVLDSDGSYFMYSKLRVQKSTWERGSLFACSVVHEGLHNHLTTKTISRSLGK
light: B1 light with A39G, I41V, R52S, S84P, S90T, F112Y, G125S
B3: 178H 2A7 mAb: mouse monoclonal antibody raised against E1-KLH (56); IgG1, κ; heavy chain SEQ ID NO 82, light chain SEQ ID NO 106 (antibody)
heavy: MNFGLSLISLALILKGVQCEVHLVESGGDLVKPGGSLKLSCAASGFTFSSYVMSWVRQTPDKRLEWIATISYGGGHYTYYPDSVKGRFTISRDNAKNTLYLQMNSLKSDDTAMYYCSSGNALNYWGQGTSVTVSSAKTTPPSVYPLAPGSAAQTNSMVTLGCLVKGYFPEPVTVTWNSGSLSSGVHTFPAVLQSDLYTLSSSVTVPSSTWPSQTVTCNVAHPASSTKVDKKIVPRDCGCKPCICTVPEVSSVFIFPPKPKDVLTITLTPKVTCVVVDISKDDPEVQFSWFVDDVEVHTAQTKPREEQINSTFRSVSELPIMHQDWLNGKEFKCRVNSAAFPAPIEKTISKTKGRPKAPQVYTIPPPKEQMAKDKVSLTCMITNFFPEDITVEWQWNGQPAENYKNTQPIMDTDGSYFVYSKLNVQKSNWEAGNTFTCSVLHEGLHNHHTEKSLSHSPGK
light: B1 light with R52Y, N53T, S84P, F112Y, G125S
B4: 178F 4H5 mAb: mouse monoclonal antibody raised against E1-KLH (56); IgG2a, κ; heavy chain SEQ ID NO 81, light chain SEQ ID NO 105 (antibody)
heavy: MNFGLSLIFLALILKGVQCEVQLVESGGDLVQPGGSLILSCVASGFTFRNYVMSWIRQTPDKRLEWVATINSGGSYTYYPDTVKGRFTISRDNAKSTLYLQMSSLKSEDTAMYYCASGNFLDYWGQGTSVTVSSAKTTPPSVYPLAPGSAAQTNSMVTLGCLVKGYFPEPVTVTWNSGSLSSGVHTFPAVLQSDLYTLSSSVTVPSSTWPSQTVTCNVAHPASSTKVDKKIVPRDCGCKPCICTVPEVSSVFIFPPKPKDVLTITLTPKVTCVVVDISKDDPEVQFSWFVDDVEVHTAQTKPREEQINSTFRSVSELPIMHQDWLNGKEFKCRVNSAAFPAPIEKTISKTKGRPKAPQVYTIPPPKEQMAKDKVSLTCMITNFFPEDITVEWQWNGQPAENYKNTQPIMDTDGSYFVYSKLNVQKSNWEAGNTFTCSVLHEGLHNHHTEKSLSHSPGK
light: B1 light with H51N, R52S, N53Y, S84P, F112Y, S122T, G125S, K128Q
B5: 178K 5B11 mAb: mouse monoclonal antibody raised against E1-KLH (56); IgG1, κ; heavy chain SEQ ID NO 90, light chain SEQ ID NO 114 (antibody)
heavy: MNFGLSLIFLALILKGVQCEVQLVESGGDLVKPGGSLKLSCAASGFSFSAYVMSWVRQTPDKRLEWVATISRGGSYIYYPDSVKGRFTISRDDARDTLYLQMTSLKSEDTAVYYCSGGNNLDYWGQGTALTVSSAKTTPPSVYPLAPGSAAQTNSMVTLGCLVKGYFPEPVTVTWNSGSLSSGVHTFPAVLQSDLYTLSSSVTVPSSTWPSETVTCNVAHPASSTKVDKKIVPRDCGCKPCICTVPEVSSVFIFPPKPKDVLTITLTPKVTCVVVDISKDDPEVQFSWFVDDVEVHTAQTQPREEQFNSTFRSVSELPIMHQDWLNGKEFKCRVNSAAFPAPIEKTISKTKGRPKAPQVYTIPPPKEQMAKDKVSLTCMITDFFPEDITVEWQWNGQPAENYKNTQPIMDTDGSYFIYSKLNVQKSNWEAGNTFTCSVLHEGLHNHHTEKSLSHSPGK
light: B1 light with H51Q, R52I, S84P, F112Y, S122T

system: E1-OVA (55); assay: ELISA binding of hybridoma supernatant to E1-OVA (55) coated plates, without inhibitor; details: hybridoma supernatant mixed with PBS alone
Method: All ELISA steps were performed at rt. Wells of a Nunc Maxi-Sorp™ flat-bottom ELISA plates (ThermoFisher Scientific, Waltham, MA) were coated with 50 μL E1-OVA (55), E2-OVA (65), and E3-OVA (72) at a concentration of 1 μg/mL in PBS for 1 h. The plates were flicked dried and remaining binding sites were blocked with 200 μL per well of blocking solution (0.5% casein, 0.05% (v/v) Tween 20 in PBS) for one hour. Plates were washed six times with MilliQ water containing 0.05% (v/v) Tween 20 on Biotek 405 LS plate washer equipped with microplate Biostacker 3 (Biotek, Winooski, VT). 50 μL of serially diluted antibody samples (serial dilutions of serum, hybridoma supernatant, or monoclonal antibodies in PBS) were added to each well and incubated for one hour. Unbound antibodies were removed by washing as described above, and 50 μL of secondary goat anti-rabbit IgG HRP or goat anti-mouse IgG (Fc)-HRP conjugate (ThermoFisher Scientific, USA), diluted 1:3,000 in the blocking solution was added to each well for detection bound rabbit or mouse antibody, respectively. Plates were incubated for one hour, washed and 100 μL of TMB substrate (Moss, Pasadena, MD) was added for 15 min to determine bound peroxidase. Optical density (OD) of the samples at 650 nm was measured using an ELISA plate reader (Molecular Devices LLC., San Jose, CA). The titer of each serum sample was designated as the maximum dilution that yielded at least twice the absorbance of the same dilution of the nonimmune control serum.
The supernatants were screened in a competitive ELISA for the presence of anti-ecstasy compound monoclonal antibodies (mAbs) as follows. 25 μL of the hybridoma supernatant was mixed with equal volume of PBS alone or containing 20 μg/mL inhibitor (MDA or MDMA) were incubated for 1 h in the wells of E1-OVA (55) coated ELISA plates. The plates were washed and the presence of bound mAbs were detected using goat anti-mouse IgG (Fc)-HRP conjugate and TMB substrate as described above. The level of inhibition of mAb/E1-OVA (55) binding in the presence of the inhibitor was estimated using a Percent (%) Inhibition calculated by the below formula:
[formula] • where “OD650 nm w/o Inhibitor” is the binding response of the antibody sample diluted in PBS alone (with no inhibitor), and the “OD650 nm with Inhibitor” is the binding response of the same antibody sample in the presence of 10 μg/mL of inhibitor (i.e., MDA or MDMA). […]

Row | Molecule | E1-OVA (55) Binding, OD650 nm w/o inhib
1 | B1 | 2.389 OD650 nm
2 | B2 | 2.836 OD650 nm
3 | B3 | 2.900 OD650 nm
4 | B4 | 2.948 OD650 nm
5 | B5 | 2.893 OD650 nm

system: not listed separately; assay: Prototype EMIT ecstasy assay, cross-reactivity with amphetamine; type: biochemical; details: conjugate Compound 58; negative urine pool

Row | Molecule | Concentrations (μg/mL) of Structurally Related Compounds Equivalent to 500 ng/mL MDMA Cutoffs, (+/−) Amph
6 | B1 | 30 µg/mL
7 | B2 | 40 to 45 µg/mL
8 | B3 | 40 to 45 µg/mL
9 | B4 | 30 µg/mL
10 | B5 | 25 to 30 µg/mL

system: not listed separately; assay: Prototype EMIT ecstasy assay, cross-reactivity with methamphetamine; type: biochemical; details: conjugate Compound 58; negative urine pool

Row | Molecule | Concentrations (μg/mL) of Structurally Related Compounds Equivalent to 500 ng/mL MDMA Cutoffs, (+/−) mAmph
11 | B1 | 50 µg/mL
12 | B2 | 40 to 50 µg/mL
13 | B3 | 30 to 40 µg/mL
14 | B4 | 30 to 40 µg/mL
15 | B5 | 30 to 50 µg/mL
